Results from US20160200782A1 (MOERAE MATRIX, published 2016).

Tests used:
Experiment in all cases: cell-based or functional assay
SAPK2a(T106M)(h) = SAPK2a(T106M)(h) (human, UniProt Q16539 1-360)
EphB3(h) = target: T1, EphB3(h) (human, UniProt P54753 581-998, limits assumed)
T1 sequence (looked up): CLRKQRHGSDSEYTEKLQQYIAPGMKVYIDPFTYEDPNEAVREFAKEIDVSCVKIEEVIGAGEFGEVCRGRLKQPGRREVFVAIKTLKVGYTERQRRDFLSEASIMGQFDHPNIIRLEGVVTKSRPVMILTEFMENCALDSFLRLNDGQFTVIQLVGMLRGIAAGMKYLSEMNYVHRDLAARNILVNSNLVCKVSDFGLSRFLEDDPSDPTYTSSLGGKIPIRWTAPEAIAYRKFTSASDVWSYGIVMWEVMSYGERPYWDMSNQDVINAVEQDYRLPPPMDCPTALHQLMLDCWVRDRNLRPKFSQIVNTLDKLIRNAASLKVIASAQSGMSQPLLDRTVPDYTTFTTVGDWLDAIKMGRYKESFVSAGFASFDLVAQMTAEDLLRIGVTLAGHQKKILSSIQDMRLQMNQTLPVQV

PKCθ(h) = PKCθ(h) (human, UniProt Q04759 1-706)
Chain of PKCθ(h) (Q04759 whole entry): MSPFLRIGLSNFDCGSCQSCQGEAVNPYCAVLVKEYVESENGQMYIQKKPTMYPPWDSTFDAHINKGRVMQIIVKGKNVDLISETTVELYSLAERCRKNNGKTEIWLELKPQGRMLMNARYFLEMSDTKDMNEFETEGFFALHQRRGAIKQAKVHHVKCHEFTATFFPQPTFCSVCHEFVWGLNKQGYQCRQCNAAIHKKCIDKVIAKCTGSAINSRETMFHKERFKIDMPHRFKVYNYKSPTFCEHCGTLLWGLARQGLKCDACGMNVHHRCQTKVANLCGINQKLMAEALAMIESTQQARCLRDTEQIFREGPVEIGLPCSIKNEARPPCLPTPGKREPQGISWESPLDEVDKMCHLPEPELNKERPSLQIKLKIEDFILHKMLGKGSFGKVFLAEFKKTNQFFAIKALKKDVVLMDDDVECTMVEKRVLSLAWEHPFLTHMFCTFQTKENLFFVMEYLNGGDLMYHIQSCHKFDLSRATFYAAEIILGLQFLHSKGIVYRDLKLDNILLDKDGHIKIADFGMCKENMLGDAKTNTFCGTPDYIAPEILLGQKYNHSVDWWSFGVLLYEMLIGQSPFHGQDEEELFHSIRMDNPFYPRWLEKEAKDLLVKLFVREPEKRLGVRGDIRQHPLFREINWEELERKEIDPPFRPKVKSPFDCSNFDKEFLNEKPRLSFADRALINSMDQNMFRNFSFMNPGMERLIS

MSK1(h) = MSK1(h) (human, UniProt O75582 1-802, limits assumed)
Chain of MSK1(h) (O75582 whole entry): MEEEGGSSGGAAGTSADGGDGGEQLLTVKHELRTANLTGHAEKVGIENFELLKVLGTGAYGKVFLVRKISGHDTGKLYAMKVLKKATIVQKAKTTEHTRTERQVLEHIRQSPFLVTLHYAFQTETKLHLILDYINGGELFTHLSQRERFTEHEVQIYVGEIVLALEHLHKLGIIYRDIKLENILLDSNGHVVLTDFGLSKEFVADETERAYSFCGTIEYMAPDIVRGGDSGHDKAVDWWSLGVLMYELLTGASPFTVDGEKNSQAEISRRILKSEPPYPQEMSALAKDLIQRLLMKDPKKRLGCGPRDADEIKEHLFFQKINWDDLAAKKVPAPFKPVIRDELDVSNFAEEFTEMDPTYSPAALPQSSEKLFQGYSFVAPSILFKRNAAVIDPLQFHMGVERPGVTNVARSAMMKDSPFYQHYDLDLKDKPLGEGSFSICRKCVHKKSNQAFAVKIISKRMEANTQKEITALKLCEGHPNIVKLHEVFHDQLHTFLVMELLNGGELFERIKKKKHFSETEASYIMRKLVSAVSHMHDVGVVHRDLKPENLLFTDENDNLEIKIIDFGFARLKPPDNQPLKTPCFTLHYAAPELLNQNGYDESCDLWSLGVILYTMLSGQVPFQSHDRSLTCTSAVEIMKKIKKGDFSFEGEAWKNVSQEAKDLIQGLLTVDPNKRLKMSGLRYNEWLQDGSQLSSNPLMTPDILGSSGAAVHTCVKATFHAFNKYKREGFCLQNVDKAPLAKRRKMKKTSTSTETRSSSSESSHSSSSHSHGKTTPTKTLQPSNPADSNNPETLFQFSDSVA

NEK2(h) = target: T2, NEK2(h) (human, UniProt P51955 1-445, limits assumed)
T2 sequence (looked up): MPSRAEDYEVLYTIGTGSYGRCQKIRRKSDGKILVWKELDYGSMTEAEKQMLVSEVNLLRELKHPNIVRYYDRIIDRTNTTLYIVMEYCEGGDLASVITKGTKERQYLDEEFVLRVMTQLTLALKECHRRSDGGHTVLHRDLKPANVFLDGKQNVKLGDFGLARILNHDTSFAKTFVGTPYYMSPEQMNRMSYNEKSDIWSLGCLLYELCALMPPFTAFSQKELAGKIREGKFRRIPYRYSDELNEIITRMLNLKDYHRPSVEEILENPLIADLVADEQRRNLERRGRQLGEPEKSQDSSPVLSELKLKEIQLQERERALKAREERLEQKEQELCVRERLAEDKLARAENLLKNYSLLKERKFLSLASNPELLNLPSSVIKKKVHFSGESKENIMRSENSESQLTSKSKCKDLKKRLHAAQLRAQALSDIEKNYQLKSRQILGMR

cKit(V654A)(h) = cKit(V654A)(h) (human, UniProt P10721 544-976, limits assumed)
Chain of cKit(V654A)(h) (P10721 544-976 V654A limits assumed): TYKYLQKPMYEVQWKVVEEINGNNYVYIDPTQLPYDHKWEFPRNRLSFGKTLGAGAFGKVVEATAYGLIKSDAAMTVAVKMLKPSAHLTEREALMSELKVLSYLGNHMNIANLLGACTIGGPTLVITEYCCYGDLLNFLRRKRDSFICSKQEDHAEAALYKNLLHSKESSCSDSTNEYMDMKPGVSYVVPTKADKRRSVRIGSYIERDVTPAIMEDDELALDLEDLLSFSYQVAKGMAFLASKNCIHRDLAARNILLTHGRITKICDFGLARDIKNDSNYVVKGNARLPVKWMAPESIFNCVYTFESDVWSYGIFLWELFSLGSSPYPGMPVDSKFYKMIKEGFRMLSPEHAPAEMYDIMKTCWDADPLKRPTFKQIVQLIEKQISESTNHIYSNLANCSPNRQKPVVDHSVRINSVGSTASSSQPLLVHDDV

Ax1(h) = target: T3, Ax1(h) (human, UniProt P30530 473-894, limits assumed)
T3 sequence (looked up): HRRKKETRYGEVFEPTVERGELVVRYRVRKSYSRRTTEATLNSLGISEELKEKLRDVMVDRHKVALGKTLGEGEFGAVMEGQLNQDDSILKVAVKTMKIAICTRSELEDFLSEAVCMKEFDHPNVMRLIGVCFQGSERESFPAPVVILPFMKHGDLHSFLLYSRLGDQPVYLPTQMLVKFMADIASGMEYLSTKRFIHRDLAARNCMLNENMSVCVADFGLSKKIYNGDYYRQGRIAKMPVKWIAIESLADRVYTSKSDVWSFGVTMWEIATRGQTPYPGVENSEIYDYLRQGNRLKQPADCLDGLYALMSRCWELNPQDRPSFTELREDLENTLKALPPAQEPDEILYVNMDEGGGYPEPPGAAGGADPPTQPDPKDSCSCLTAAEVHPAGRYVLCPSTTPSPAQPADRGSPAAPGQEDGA

IR(h), activated = IR(h), activated (human, UniProt P06213 1005-1310, limits assumed)
Chain of IR(h), activated (P06213 1005-1310 limits assumed): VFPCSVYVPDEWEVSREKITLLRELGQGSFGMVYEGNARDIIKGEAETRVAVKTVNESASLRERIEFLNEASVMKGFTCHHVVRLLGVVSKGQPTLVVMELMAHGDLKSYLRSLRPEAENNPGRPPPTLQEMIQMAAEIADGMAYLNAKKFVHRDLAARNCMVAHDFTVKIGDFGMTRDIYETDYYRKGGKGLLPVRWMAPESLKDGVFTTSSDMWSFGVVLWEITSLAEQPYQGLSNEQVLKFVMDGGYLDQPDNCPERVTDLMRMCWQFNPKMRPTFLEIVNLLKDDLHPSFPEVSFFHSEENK

CHK2(h) = CHK2(h) (human, UniProt O96017 5-543, limits assumed)
Chain of CHK2(h) (O96017 5-543 limits assumed): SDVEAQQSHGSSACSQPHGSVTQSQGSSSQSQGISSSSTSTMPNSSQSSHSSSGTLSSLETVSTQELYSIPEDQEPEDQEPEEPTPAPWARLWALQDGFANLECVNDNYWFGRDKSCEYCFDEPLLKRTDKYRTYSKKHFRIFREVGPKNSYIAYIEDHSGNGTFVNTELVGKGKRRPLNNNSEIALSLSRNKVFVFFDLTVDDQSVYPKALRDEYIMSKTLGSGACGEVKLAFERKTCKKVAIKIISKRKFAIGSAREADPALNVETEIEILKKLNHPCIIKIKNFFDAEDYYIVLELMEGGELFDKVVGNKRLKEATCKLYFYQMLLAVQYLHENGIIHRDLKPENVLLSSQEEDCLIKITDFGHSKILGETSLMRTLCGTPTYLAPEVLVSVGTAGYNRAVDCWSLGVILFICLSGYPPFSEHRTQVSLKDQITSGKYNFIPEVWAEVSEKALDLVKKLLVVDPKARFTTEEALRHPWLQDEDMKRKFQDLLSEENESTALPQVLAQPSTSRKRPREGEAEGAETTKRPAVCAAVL

IKKβ(h) = target: T4, IKKβ(h) (human, UniProt O14920 1-756, limits assumed)
T4 sequence (looked up): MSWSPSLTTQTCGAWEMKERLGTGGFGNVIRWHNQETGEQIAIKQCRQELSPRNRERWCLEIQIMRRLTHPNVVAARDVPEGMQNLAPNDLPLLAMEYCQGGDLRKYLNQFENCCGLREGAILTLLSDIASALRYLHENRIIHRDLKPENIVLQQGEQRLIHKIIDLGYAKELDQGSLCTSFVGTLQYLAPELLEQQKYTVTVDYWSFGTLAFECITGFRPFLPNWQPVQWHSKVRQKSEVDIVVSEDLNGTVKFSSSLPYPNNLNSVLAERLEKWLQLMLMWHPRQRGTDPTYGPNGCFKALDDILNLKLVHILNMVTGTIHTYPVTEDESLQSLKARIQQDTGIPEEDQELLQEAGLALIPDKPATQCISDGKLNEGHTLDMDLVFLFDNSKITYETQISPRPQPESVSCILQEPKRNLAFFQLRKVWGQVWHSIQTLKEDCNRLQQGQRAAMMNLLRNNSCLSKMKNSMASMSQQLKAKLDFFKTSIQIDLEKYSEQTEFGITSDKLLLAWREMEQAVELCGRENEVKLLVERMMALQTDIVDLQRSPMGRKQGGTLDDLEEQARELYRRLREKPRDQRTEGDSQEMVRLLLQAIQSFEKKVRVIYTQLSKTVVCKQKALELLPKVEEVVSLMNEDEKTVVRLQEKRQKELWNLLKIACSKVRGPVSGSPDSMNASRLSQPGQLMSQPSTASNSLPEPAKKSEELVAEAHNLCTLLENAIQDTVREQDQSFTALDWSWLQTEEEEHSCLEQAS
Note: test concentration or dose not given here.

Chain of SAPK2a(T106M)(h) (Q16539 whole entry T106M): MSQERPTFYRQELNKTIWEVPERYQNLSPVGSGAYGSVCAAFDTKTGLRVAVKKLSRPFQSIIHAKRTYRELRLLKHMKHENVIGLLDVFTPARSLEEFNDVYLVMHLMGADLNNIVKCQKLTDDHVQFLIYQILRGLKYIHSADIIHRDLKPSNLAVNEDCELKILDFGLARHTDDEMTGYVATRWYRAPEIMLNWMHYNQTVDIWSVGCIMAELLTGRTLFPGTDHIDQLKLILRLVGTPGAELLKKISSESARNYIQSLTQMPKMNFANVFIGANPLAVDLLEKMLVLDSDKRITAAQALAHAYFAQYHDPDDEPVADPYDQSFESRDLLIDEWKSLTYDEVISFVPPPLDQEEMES

| Binder | % activity (SAPK2a(T106M)(h)) | % activity (EphB3(h)) | % activity (PKCθ(h)) | % activity (MSK1(h)) | % activity (NEK2(h)) | % activity (cKit(V654A)(h)) | % activity (Ax1(h)) | % activity (IR(h), activated) | % activity (CHK2(h)) | % activity (IKKβ(h)) |
| --- | --- | --- | --- | --- | --- | --- | --- | --- | --- | --- |
| KAFAKLAARLYRKALARQLGVAA [MMI-0400] | 99% | 47% | 76% | 28% | 61% | 150% | 41% | 59% | 54% | 84% |
| FAKLAARLYRKALARQLGVAA [MMI-0300] | 97% | 62% | 88% | 32% | 78% | 134% | 52% | 79% | 66% | 84% |
